In patent publication US20170037111A1, “Novel peptides and combination of peptides for use in immunotherapy against ovarian cancer and other cancers” (immatics biotechnologies GmbH, priority 2015, published 2017) one finds Peptide exchange data, which are given here for 29 substances.

The target of this assay is HLA-A*02:01 (Homo sapiens, UniProt P04439, D140Y/D185E/D98H/E176V/E277Q/G131W/G231S/I119V/I121R/I166T/I218V/L300P/L318F/N151K/N90K/P208A/P217A/Q86G/Q94H/R138H/R169H/T345S). Description: MHC binding assay (UV-ligand exchange, β2m ELISA, peptide exchange yield). The note with it: MHC class I binding score; binding to HLA-A*02:01 ranged by peptide exchange yield (UV-ligand exchange, β2m ELISA). From the text: Candidate peptides for T cell based therapies according to the present invention were further tested for their MHC binding capacity (affinity). The individual peptide-MHC complexes were produced by UV-ligand exchange, where a UV-sensitive peptide is cleaved upon UV-irradiation, and exchanged with the peptide of interest as analyzed. Only peptide candidates that can effectively bind and stabilize the peptide-receptive MHC molecules prevent dissociation of the MHC complexes. To determine the yield of the exchange reaction, an ELISA was performed based on the detection of the light chain (β2m) of stabilized MHC complexes. The assay was performed as generally described in Rodenko et al. (Rodenko et al., 2006).
96 well MAXISorp plates (NUNC) were coated over night with 2 ug/ml streptavidin in PBS at room temperature, washed 4× and blocked for 1h at 37° C. in 2% BSA containing blocking buffer. […] Peptide-MHC monomers of the UV-exchange reaction were diluted 100 fold in blocking buffer. Samples were incubated for 1h at 37° C., washed four times, incubated with 2 ug/ml HRP conjugated anti-β2m for 1h at 37° C., washed again and detected with TMB solution that is stopped with […]. Absorption was measured at 450 nm. Candidate peptides that show a high exchange yield (preferably higher than 50%, most preferred higher than 75%) are generally preferred for a generation and production of antibodies or fragments thereof, and/or T cell receptors or fragments thereof, as they show sufficient avidity to the MHC molecules and prevent dissociation of the MHC complexes.

Consider “396 (ALLPDLPAL; listed as Homo sapiens) [compound 396]”, for which the Peptide exchange entry is listed as “″+++″ (≧50% = +++)”.

Take “16 (VLFQGQASL; listed as Homo sapiens) [compound 16]”: the Peptide exchange entry was “″+++″ (≧50% = +++)”.

Consider “102 (YLFESEGLVL; listed as Homo sapiens) [compound 102]”, for which the Peptide exchange entry is reported as “″+++″ (≧50% = +++)”.

As for “512 (SLSEIVPCL; listed as Homo sapiens) [compound 512]”, the Peptide exchange result is on record as “″+++″ (≧50% = +++)”.

As for “475 (LLLNEEALAQI; listed as Homo sapiens) [compound 475]”, the Peptide exchange result is on record as “″+++″ (≧50% = +++)”.

For “381 (FIDEAYVEV; listed as Homo sapiens) [compound 381]”, the Peptide exchange result was “″++″ (≧20% = ++)”.

For the substance “391 (YVYPQRLNFV; listed as Homo sapiens) [compound 391]”, the Peptide exchange entry was “″+++″ (≧50% = +++)”.

For “153 (FLIANVLYL; listed as Homo sapiens) [compound 153]”, the Peptide exchange result was “″+″ (≧10% = +)”.

In the case of “240 (ILLEQAFYL; listed as Homo sapiens) [compound 240]”, the Peptide exchange result is listed as “″+++″ (≧50% = +++)”.

Consider “449 (KLAEGLDIQL; listed as Homo sapiens) [compound 449]”, for which the Peptide exchange entry was “″+++″ (≧50% = +++)”.

For the substance “262 (LLWGDLIWL; listed as Homo sapiens) [compound 262]”, the Peptide exchange result was “″+++″ (≧50% = +++)”.

With “142 (FLFATPVFI; listed as Homo sapiens) [compound 142]”, the Peptide exchange result is reported as “″+++″ (≧50% = +++)”.

In the case of “250 (ALSEEGLLVYL; listed as Homo sapiens) [compound 250]”, the Peptide exchange result is “″+++″ (≧50% = +++)”.

On to “10 (FLATFPLAAV; listed as Homo sapiens) [compound 10]”, for which the Peptide exchange entry is on record as “″++++″ (≧75% = ++++)”.

“235 (YLNDLHEVLL; listed as Homo sapiens) [compound 235]”: the Peptide exchange entry is on record as “″++++″ (≧75% = ++++)”.

Consider “190 (FLSSLTETI; listed as Homo sapiens) [compound 190]”, for which the Peptide exchange result was “″+++″ (≧50% = +++)”.

Regarding “249 (LLDGFLVNV; listed as Homo sapiens) [compound 249]”, the Peptide exchange result is “″+++″ (≧50% = +++)”.

“228 (AMQEYIAVV; listed as Homo sapiens) [compound 228]”: the Peptide exchange entry was “″++″ (≧20% = ++)”.

Consider “96 (YIFTDNPAAV; listed as Homo sapiens) [compound 96]”, for which the Peptide exchange entry is “″+++″ (≧50% = +++)”.

Consider “138 (YQYPRAILSV; listed as Homo sapiens) [compound 138]”, for which the Peptide exchange result is on record as “″+++″ (≧50% = +++)”.

For “431 (SLVNVVPKL; listed as Homo sapiens) [compound 431]”, the Peptide exchange result is given as “″++″ (≧20% = ++)”.

“555 (YVLEGLKSV; listed as Homo sapiens) [compound 555]”: the Peptide exchange entry is recorded as “″+++″ (≧50% = +++)”.

Take “13 (YLMDESLNL; listed as Homo sapiens) [compound 13]”: the Peptide exchange entry is given as “″+++″ (≧50% = +++)”.

In the case of “280 (VLPDPEVLEAV; listed as Homo sapiens) [compound 280]”, the Peptide exchange entry is listed as “″+++″ (≧50% = +++)”.

On to “366 (RLLDMGETDLML; listed as Homo sapiens) [compound 366]”, for which the Peptide exchange entry is on record as “″+++″ (≧50% = +++)”.

For “173 (LLDSASAGLYL; listed as Homo sapiens) [compound 173]”, the Peptide exchange result is recorded as “″+++″ (≧50% = +++)”.

Turning to “497 (GLLEKLTAI; listed as Homo sapiens) [compound 497]”, the Peptide exchange result was “″+++″ (≧50% = +++)”.

For “195 (GLFADLLPRL; listed as Homo sapiens) [compound 195]”, the Peptide exchange entry is given as “″+++″ (≧50% = +++)”.

On to “296 (FMEGAIIYV; listed as Homo sapiens) [compound 296]”, for which the Peptide exchange entry is “″+++″ (≧50% = +++)”.
